Earlier results as cited in article PMC11866755.

How the values were obtained:
Assay in all cases: NMR
His4 = His4 (UniProt position 25, YTLKCHNTQLP)
Asp59 = Asp59 (UniProt position 80, VCCSTDKCN--)
Asp42 = Asp42 (UniProt position 63, KRGCADNCPKN)
Glu17 = Glu17 (UniProt position 38, YKTCPEGKNLC)
His15 = His15 (UniProt position 33, AAMKRHGLDNY)
Glu7 = Glu7 (UniProt position 25, VFGRCELAAAM)
Asp48 = Asp48 (UniProt position 66, TNRNTDGSTDY)
Asp101 = Asp101 (UniProt position 119, KKIVSDGNGMN)
Glu35 = Glu35 (UniProt position 53, CAAKFESNFNT)
Asp66 = Asp66 (UniProt position 84, RWWCNDGRTPG)
Asp87 = Asp87 (UniProt position 105, ALLSSDITASV)
Asp18 = Asp18 (UniProt position 36, KRHGLDNYRGY)
Asp52 = Asp52 (UniProt position 70, TDGSTDYGILQ)
Asp119 = Asp119 (UniProt position 137, RCKGTDVQAWI)
Glu52 = Glu52 (UniProt position 134, PKKFNEKYGPE); conditions: folded protein, ligand state not stated
Glu129 = Glu129 (UniProt position 211, LLRKAEAQAKK); conditions: folded protein, ligand state not stated
Glu135 = Glu135 (UniProt position 217, AQAKKEKLNIW); conditions: folded protein, ligand state not stated
Asp40 = Asp40 (UniProt position 122, RLLLVDTPETK); conditions: folded protein, ligand state not stated
Glu10 = Glu10 (UniProt position 92, KKLHKEPATLI); conditions: folded protein, ligand state not stated
Glu75 = Glu75 (UniProt position 157, KKIEVEFDKGQ); conditions: folded protein, ligand state not stated
Glu67 = Glu67 (UniProt position 149, TKKMVENAKKI); conditions: folded protein, ligand state not stated
Glu73 = Glu73 (UniProt position 155, NAKKIEVEFDK); conditions: folded protein, ligand state not stated
His121 = His121 (UniProt position 203, KGNNTHEQLLR); conditions: folded protein, ligand state not stated
Glu122 = Glu122 (UniProt position 204, GNNTHEQLLRK); conditions: folded protein, ligand state not stated
Glu43 = Glu43 (UniProt position 125, LVDTPETKHPK); conditions: folded protein, ligand state not stated
Asp95 = Asp95 (UniProt position 177, AYIYADGKMVN); conditions: folded protein, ligand state not stated
His8 = His8 (UniProt position 90, STKKLHKEPAT); conditions: folded protein, ligand state not stated
Glu101 = Glu101 (UniProt position 183, GKMVNEALVRQ); conditions: folded protein, ligand state not stated
Asp77 = Asp77 (UniProt position 159, IEVEFDKGQRT); conditions: folded protein, ligand state not stated
Asp83 = Asp83 (UniProt position 165, KGQRTDKYGRG); conditions: folded protein, ligand state not stated
Glu57 = Glu57 (UniProt position 139, EKYGPEASAFT); conditions: folded protein, ligand state not stated
[1] = target: His2 (position 2, ----GHAHG--); conditions: free peptide in solution
[2] = target: His4 (position 4, --GHAHG----); conditions: free peptide in solution
[3] = target: Glu2 (position 2, ----GEAEG--); conditions: free peptide in solution
[4] = target: Glu4 (position 4, --GEAEG----); conditions: free peptide in solution
[5] = target: His4 (position 4, --GEAHG----); conditions: free peptide in solution
[6] = target: Glu2 (position 2, ----GEAHG--); conditions: free peptide in solution
[7] = target: His2 (position 2, ----GHAEG--); conditions: free peptide in solution
[8] = target: Glu4 (position 4, --GHAEG----); conditions: free peptide in solution

Cardiotoxin V (cytotoxin 5, CTX A5) (Naja atra (printed as Naja naja atra, Chinese/Taiwan cobra))
pKa (His4): 5.5 | pKa (Asp59): <2.0 | pKa (Asp42): 3.2 | pKa (Glu17): 4.0

Hen egg-white lysozyme (HEWL) (Gallus gallus)
pKa (His15): 5.5 ±0.2 | pKa (Glu7): 2.6 ±0.2 | pKa (Asp48): 1.4 ±0.2 | pKa (Asp101): 4.5 ±0.1 | pKa (Glu35): 6.1 ±0.4 | pKa (Asp66): 1.2 ±0.2 | pKa (Asp87): 2.2 ±0.1 | pKa (Asp18): 2.8 ±0.3 | pKa (Asp52): 3.6 ±0.3 | pKa (Asp119): 3.5 ±0.3

Staphylococcal nuclease Delta+PHS (printed as ΔPHS) (Staphylococcus aureus; G50F;V51N;P117G;H124L;S128A;del44-49)
pKa (Glu52): 3.9 | pKa (Glu129): 3.8 | pKa (Glu135): 3.8 | pKa (Asp40): 3.9 | pKa (Glu10): 2.8 | pKa (Glu75): 3.3 | pKa (Glu67): 3.58 | pKa (Glu73): 3.3 | pKa (His121): 5.24 | pKa (Glu122): 3.9 | pKa (Glu43): 4.3 | pKa (Asp95): 2.2 | pKa (His8): 6.5 | pKa (Glu101): 3.8 | pKa (Asp77): <2.2 | pKa (Asp83): <2.2 | pKa (Glu57): 3.5

GHAHG [Pentapeptide GHAHG (synthetic)]
pKa [1]: 6.23 | pKa [2]: 6.66

GEAEG [Pentapeptide GEAEG (synthetic)]
pKa [3]: 4.06 | pKa [4]: 4.04

GEAHG [Pentapeptide GEAHG (synthetic)]
pKa [5]: 6.59 | pKa [6]: 3.76

GHAEG [Pentapeptide GHAEG (synthetic)]
pKa [7]: 6.14 | pKa [8]: 3.81
